The target in test [1] is alpha V integrins (αvβ3 and αvβ5) on human cells (human) (UniProt P06756). Briefly: cell-based or functional assay.
Test [2] has the same target. Briefly: 125-I antibody saturation binding on M21 cells (n = 4).
For test [3] the target is unchanged. Briefly: 125-I antibody saturation binding on M21 cells (n = 8).
The target is the same in test [4]. Briefly: 125-I antibody saturation binding on A375S2 cells (n = 5).
Test [5] has the same target. Briefly: 125-I antibody saturation binding on A375S2 cells (n = 7).
The target is the same in test [6]. Briefly: 125-I antibody binding on A375S2 and M21 cells, rounded summary.
For test [7] the target is unchanged. The test can be described thus: flow cytometry on M21 cells; labeled CNTO95 2 µg/mL; no competitor (saline). In general terms: A flow cytometer gives signals particle by particle.
For test [8] the target is unchanged. The test can be described thus: flow cytometry on M21 cells; labeled CNTO95 20 µg/mL; no competitor (saline).
Test [9] has the same target. Briefly: flow cytometry on M21 cells; labeled CNTO95 2 µg/mL; competitor m7E3 IgG 20 µg/mL. Set-up: % Positive: reference not given here.
Test [10] shares this target. Briefly: flow cytometry on M21 cells; labeled CNTO95 20 µg/mL; competitor m7E3 IgG 20 µg/mL.
Test [11] has the same target. Briefly: flow cytometry on M21 cells; labeled CNTO95 2 µg/mL; competitor anti-β3 (AMAC) 20 µg/mL.
Test [12] has the same target. The test can be described thus: flow cytometry on M21 cells; labeled CNTO95 20 µg/mL; competitor anti-β3 (AMAC) 20 µg/mL.
Test [13] shares this target. Briefly: flow cytometry on M21 cells; labeled CNTO95 2 µg/mL; competitor P1F6 (anti-αvβ5) 20 µg/mL. Set-up: % Positive: reference not given here.
For test [14] the target is unchanged. The test can be described thus: flow cytometry on M21 cells; labeled CNTO95 2 µg/mL; competitor VNR139 (anti-αv) 20 µg/mL.
For test [15] the target is unchanged. Briefly: flow cytometry on M21 cells; labeled CNTO95 2 µg/mL; competitor LM609 (anti-αvβ3) 20 µg/mL. Set-up: % Positive: reference not given here.
For test [16] the target is unchanged. The test can be described thus: flow cytometry on M21 cells; labeled CNTO95 20 µg/mL; competitor P1F6 (anti-αvβ5) 20 µg/mL.
Test [17] has the same target. The test can be described thus: flow cytometry on M21 cells; labeled CNTO95 20 µg/mL; competitor VNR139 (anti-αv) 20 µg/mL.
Test [18] has the same target. The test can be described thus: flow cytometry on M21 cells; labeled CNTO95 2 µg/mL; competitor anti-β3 (Chemicon) 20 µg/mL.
For test [19] the target is unchanged. Briefly: flow cytometry on M21 cells; labeled CNTO95 20 µg/mL; competitor LM609 (anti-αvβ3) 20 µg/mL.
The target is the same in test [20]. Briefly: flow cytometry on M21 cells; labeled CNTO95 20 µg/mL; competitor anti-β3 (Chemicon) 20 µg/mL.
Test [21] addresses αvβ3 integrin on human cells (human) (UniProt P06756). Briefly: cell-based or functional assay.
The target is the same in test [22]. Briefly: radiolabeled antibody binding on A375S2 cells (n = 2).
Test [23] addresses αvβ5 integrin on human cells (human) (UniProt P06756). The test can be described thus: cell-based or functional assay.
Test [24] shares this target. The test can be described thus: radiolabeled antibody binding on M21 cells (n = 2).
The target is the same in test [25]. The test can be described thus: radiolabeled antibody binding on HT-29 cells (n = 1).
Test [26] has the same target. The test can be described thus: radiolabeled antibody binding on A375S2 cells (n = 4).

pKd: −log10 of the molar value.

What is called pKd is the Kd on a negative log10 scale, so that one unit is a factor of ten.

Sequence of αvβ3 integrin on human cells (human) (P06756 31-1048, chain 1 of 2): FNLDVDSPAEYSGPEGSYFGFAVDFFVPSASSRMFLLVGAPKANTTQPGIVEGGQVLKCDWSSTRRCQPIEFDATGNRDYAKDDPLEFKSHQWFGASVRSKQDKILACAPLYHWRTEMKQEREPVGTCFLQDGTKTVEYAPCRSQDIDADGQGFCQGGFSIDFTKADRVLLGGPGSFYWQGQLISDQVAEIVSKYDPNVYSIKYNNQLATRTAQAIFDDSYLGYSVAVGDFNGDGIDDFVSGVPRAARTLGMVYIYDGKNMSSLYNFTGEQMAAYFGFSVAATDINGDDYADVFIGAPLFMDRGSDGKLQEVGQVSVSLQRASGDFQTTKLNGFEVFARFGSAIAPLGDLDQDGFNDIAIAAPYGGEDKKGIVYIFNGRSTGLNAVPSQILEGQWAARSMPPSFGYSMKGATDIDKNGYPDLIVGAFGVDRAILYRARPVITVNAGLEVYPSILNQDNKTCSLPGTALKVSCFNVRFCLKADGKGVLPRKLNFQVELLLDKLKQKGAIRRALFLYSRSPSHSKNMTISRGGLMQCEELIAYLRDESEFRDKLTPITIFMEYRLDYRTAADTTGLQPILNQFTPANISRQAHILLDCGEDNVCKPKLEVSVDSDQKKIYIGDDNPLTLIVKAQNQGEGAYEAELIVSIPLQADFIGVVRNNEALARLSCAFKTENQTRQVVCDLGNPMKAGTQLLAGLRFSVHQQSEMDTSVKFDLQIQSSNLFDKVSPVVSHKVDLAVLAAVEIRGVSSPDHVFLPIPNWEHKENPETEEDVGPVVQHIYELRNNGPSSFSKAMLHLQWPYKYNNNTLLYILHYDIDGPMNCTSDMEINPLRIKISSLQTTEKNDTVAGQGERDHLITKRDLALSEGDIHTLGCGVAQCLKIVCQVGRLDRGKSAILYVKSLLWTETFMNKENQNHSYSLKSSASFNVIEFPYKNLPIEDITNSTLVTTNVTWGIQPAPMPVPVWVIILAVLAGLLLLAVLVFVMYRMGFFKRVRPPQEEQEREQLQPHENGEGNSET
Sequence of αvβ3 integrin on human cells (human) (P05106 27-788, chain 2 of 2, further chain): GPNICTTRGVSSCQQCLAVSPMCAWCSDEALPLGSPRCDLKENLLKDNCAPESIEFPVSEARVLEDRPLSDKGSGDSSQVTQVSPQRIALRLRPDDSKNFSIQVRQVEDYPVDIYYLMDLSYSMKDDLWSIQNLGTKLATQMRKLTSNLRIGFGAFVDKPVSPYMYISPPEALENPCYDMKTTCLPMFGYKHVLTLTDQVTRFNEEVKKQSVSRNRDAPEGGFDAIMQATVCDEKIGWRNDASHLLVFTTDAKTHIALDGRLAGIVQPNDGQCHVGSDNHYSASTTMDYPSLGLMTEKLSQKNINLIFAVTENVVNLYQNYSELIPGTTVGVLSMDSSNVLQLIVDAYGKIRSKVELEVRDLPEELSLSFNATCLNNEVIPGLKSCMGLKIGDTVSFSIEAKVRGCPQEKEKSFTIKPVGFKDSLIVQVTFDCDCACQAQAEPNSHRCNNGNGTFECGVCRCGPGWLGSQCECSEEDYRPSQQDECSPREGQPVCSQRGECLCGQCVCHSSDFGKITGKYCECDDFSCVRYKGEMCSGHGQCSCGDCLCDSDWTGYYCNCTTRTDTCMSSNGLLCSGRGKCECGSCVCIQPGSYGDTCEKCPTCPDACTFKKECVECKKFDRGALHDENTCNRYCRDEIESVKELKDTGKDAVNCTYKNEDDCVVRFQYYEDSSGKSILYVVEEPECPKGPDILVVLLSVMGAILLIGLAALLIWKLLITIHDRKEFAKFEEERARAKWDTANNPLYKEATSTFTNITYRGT
Sequence of αvβ5 integrin on human cells (human) (P06756 31-1048, chain 1 of 2): as the sequence (P06756 31-1048, chain 1 of 2) above
Sequence of αvβ5 integrin on human cells (human) (P18084 24-799, chain 2 of 2, further chain): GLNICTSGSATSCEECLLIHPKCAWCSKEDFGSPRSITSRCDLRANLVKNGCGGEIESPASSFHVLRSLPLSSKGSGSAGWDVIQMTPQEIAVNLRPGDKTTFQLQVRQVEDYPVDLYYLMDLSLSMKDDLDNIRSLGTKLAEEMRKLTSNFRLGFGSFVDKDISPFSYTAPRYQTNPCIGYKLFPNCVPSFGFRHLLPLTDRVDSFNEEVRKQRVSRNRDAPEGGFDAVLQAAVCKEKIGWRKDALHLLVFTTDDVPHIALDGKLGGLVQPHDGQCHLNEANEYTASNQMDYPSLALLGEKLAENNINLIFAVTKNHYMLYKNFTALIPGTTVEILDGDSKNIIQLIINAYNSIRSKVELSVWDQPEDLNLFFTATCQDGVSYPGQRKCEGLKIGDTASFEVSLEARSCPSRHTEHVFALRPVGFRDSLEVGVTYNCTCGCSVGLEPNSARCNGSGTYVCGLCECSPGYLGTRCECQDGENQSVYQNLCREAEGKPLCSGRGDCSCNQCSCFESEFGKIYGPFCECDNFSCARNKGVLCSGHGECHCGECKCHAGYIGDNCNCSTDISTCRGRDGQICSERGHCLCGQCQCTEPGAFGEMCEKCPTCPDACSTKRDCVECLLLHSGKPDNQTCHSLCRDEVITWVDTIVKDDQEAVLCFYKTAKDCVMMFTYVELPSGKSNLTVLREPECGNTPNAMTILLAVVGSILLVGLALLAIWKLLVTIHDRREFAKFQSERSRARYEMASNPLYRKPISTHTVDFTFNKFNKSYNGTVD

Substance CNTO 95 (antibody) registered an A375S.2 cell adhesion to fibrin, % of no-antibody control (10 µg/ml) in test [1] of 43.3%. In test [1], this substance returned an A375S.2 cell adhesion to fibrinogen, % of no-antibody control (10 µg/ml) of 11.4%. This substance also registered an A375S.2 cell adhesion to fibronectin, % of no-antibody control (10 µg/ml) in test [1] of 103%. The A375S.2 cell adhesion to gelatin, % of no-antibody control (10 µg/ml) in test [1] was 23.2%. Moreover, the A375S.2 cell adhesion to type I collagen, % of no-antibody control (10 µg/ml) in test [1] was 104%. This substance came in with an A375S.2 cell adhesion to vitronectin, % of no-antibody control (10 µg/ml) in [1] of 1.4%. In test [1], this substance showed an HUVEC adhesion to fibrin, % of no-antibody control (10 µg/ml) of 45.1%. In [1], this substance had an HUVEC adhesion to fibrinogen, % of no-antibody control (10 µg/ml) of 34.5%. Further, in [1], the HUVEC adhesion to fibronectin, % of no-antibody control (10 µg/ml) worked out at 102%. The HUVEC adhesion to gelatin, % of no-antibody control (10 µg/ml) in [1] was determined as 54.8%. The HUVEC adhesion to type I collagen, % of no-antibody control (10 µg/ml) in test [1] amounted to 97.7%. Further, in [1], the HUVEC adhesion to vitronectin, % of no-antibody control (10 µg/ml) came to 3.3%. Besides, the pKd in test [2] was 8.07; in [4], 8.28; in test [6], 8.15. Also, the results for the Receptors per cell (receptors/cell) in test [3] and in [5] were 200000 and 120000, respectively. Further, the % Positive in [7] is 100%; in test [8], 100%; in test [9], 132%; in test [10] it was 103%; in test [11] it was 106%; in test [12] it was 91%. Moreover, the % Positive was determined as 112% in [13]; 106% in test [14]; 110% in [15]; 101% in [16]; 104% in test [17]; 125% in [18]. The results for the % Positive in test [19] and in test [20] were 93% and 91%, respectively. For the same substance, the MCF (Median Channel Fluorescence) in test [7] came out at 4.33; in [8], 14.3; in test [9], 5.73; in test [10] it was 14.7; in [11], 4.61; in [12] it was 13.1. For the same substance, the MCF (Median Channel Fluorescence) in test [13] stood at 4.87; in [14] it was 4.61; in [15], 4.78; in [16], 14.5; in test [17] it was 14.9; in test [18] it was 5.42. Also, the MCF (Median Channel Fluorescence) in test [19] was 13.3; in test [20], 13.1.
In test [1], Human IgG (negative control) (antibody) returned an A375S.2 cell adhesion to fibrin, % of no-antibody control (10 µg/ml) of 99.5%; an A375S.2 cell adhesion to fibrinogen, % of no-antibody control (10 µg/ml) of 102%; an A375S.2 cell adhesion to fibronectin, % of no-antibody control (10 µg/ml) of 100%; an A375S.2 cell adhesion to gelatin, % of no-antibody control (10 µg/ml) of 94.6%. Also, in test [1], the A375S.2 cell adhesion to type I collagen, % of no-antibody control (10 µg/ml) is 99.1%; the A375S.2 cell adhesion to vitronectin, % of no-antibody control (10 µg/ml) turned out to be 104%; the HUVEC adhesion to fibrin, % of no-antibody control (10 µg/ml) is 99.7%; the HUVEC adhesion to fibrinogen, % of no-antibody control (10 µg/ml) came to 108%. In test [1], this substance had an HUVEC adhesion to fibronectin, % of no-antibody control (10 µg/ml) of 96.8%; an HUVEC adhesion to gelatin, % of no-antibody control (10 µg/ml) of 109%; an HUVEC adhesion to type I collagen, % of no-antibody control (10 µg/ml) of 99.3%; an HUVEC adhesion to vitronectin, % of no-antibody control (10 µg/ml) of 96.3%.
In test [21], “LM609 (murine anti-human αvβ3 antibody, Chemicon)” registered an A375S.2 cell adhesion to fibrin, % of no-antibody control (10 µg/ml) of 50%; an A375S.2 cell adhesion to fibrinogen, % of no-antibody control (10 µg/ml) of 14%; an A375S.2 cell adhesion to fibronectin, % of no-antibody control (10 µg/ml) of 104%; an A375S.2 cell adhesion to gelatin, % of no-antibody control (10 µg/ml) of 25.2%. Besides, in test [21], the A375S.2 cell adhesion to type I collagen, % of no-antibody control (10 µg/ml) was determined as 100%; the A375S.2 cell adhesion to vitronectin, % of no-antibody control (10 µg/ml) turned out to be 42.1%; the HUVEC adhesion to fibrin, % of no-antibody control (10 µg/ml) was 48.1%; the HUVEC adhesion to fibrinogen, % of no-antibody control (10 µg/ml) worked out at 14.3%. For the same substance, in [21], the HUVEC adhesion to fibronectin, % of no-antibody control (10 µg/ml) was determined as 103%; the HUVEC adhesion to gelatin, % of no-antibody control (10 µg/ml) worked out at 36.5%; the HUVEC adhesion to type I collagen, % of no-antibody control (10 µg/ml) came to 109%; the HUVEC adhesion to vitronectin, % of no-antibody control (10 µg/ml) was 26.3%. The same substance showed a Receptors per cell (receptors/cell) in [22] of 300000.
On to P1F6 (murine anti-human αvβ5 antibody), for which, in test [23], the A375S.2 cell adhesion to fibrin, % of no-antibody control (10 µg/ml) turned out to be 92.9%; the A375S.2 cell adhesion to fibrinogen, % of no-antibody control (10 µg/ml) worked out at 99.4%; the A375S.2 cell adhesion to fibronectin, % of no-antibody control (10 µg/ml) is 101%; the A375S.2 cell adhesion to gelatin, % of no-antibody control (10 µg/ml) amounted to 87.4%. In test [23], the A375S.2 cell adhesion to type I collagen, % of no-antibody control (10 µg/ml) was determined as 101%; the A375S.2 cell adhesion to vitronectin, % of no-antibody control (10 µg/ml) stood at 28.5%; the HUVEC adhesion to fibrin, % of no-antibody control (10 µg/ml) worked out at 96.7%; the HUVEC adhesion to fibrinogen, % of no-antibody control (10 µg/ml) came out at 94.5%. In test [23], the HUVEC adhesion to fibronectin, % of no-antibody control (10 µg/ml) was 103%; the HUVEC adhesion to gelatin, % of no-antibody control (10 µg/ml) was 94.4%; the HUVEC adhesion to type I collagen, % of no-antibody control (10 µg/ml) came out at 116%; the HUVEC adhesion to vitronectin, % of no-antibody control (10 µg/ml) was determined as 39.8%. Also, in test [24], the Receptors per cell (receptors/cell) was determined as 44000. This substance also yielded a Receptors per cell (receptors/cell) in test [25] of 73000. This substance also had a Receptors per cell (receptors/cell) in test [26] of 70000.
